# B1: S009-F3.74.20 (antibody, human IgG1, kappa, V domains shown)
# VH: RVQLQQSGAELVRPGASVTLSCKASGYTFTDSEMHWVKQTPVHGLEWIGAIDPEIDGTAYNQNFRDKAILTADKSSSTAYMELRSLTSEDSAVYYCTTYFGSGYGYFDVWGTGTTVTVSS
# VL: DVVMTQTPLSLSVSLGDQASISCRSSQSLVYSNGNTYLHWFLQKPGQSPKLLIYKVSNRFSGVPDRFSGSGSGTDFTLKINRVEAEDLGVYFCSQSTHIPFTFGAGTKLELKR
# notes: Human-murine chimeric antibody: murine VH/VL on human IgG1 heavy and kappa light constant regions
# B2: S009-F3.38.10 (antibody, human IgG1, kappa, V domains shown)
# VH: EVQLQQSGPVLVKPGASVKMSCEASGYIFTDYYMNWVKKSHGKSLEWIGVINPKNGVISHNQKFKGKATLTVDKSSNTAYMELSSLTSEDSAVYYCANYGSRFYAMDYWGQGTSVTVSS
# VL: DVVMTQTPLSLPVSLGDQASISCRSSQSLIHSDGNTYLQWYLQKSGQSPKLLIYKVSNRFSGVPDRFSGSGSGTDFTLKISRVETEDLGVYFCSQTTHVPFTFGSGTKLEIKR
# notes: as for B1
# B3: S009-F3.51.8 (antibody, human IgG1, kappa, V domains shown)
# VH: QVQLQQSGAELVRPGASVTLSCKASGYTFTDYEMHWVKQTPVHGLEWIGGFDPETGGTAHNQKFKGKAILTADKSSSTAYMELRSLTSEDSAVYYCSNYGSIWGDCWGQGTSVTVSS
# VL: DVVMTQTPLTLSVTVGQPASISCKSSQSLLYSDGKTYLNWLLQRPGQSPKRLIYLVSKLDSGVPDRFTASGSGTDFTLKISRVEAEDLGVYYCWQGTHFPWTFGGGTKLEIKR
# notes: Human-murine chimeric antibody on human IgG1/kappa constant regions
# B4: S009-F3.45.21 (antibody, human IgG1, kappa, V domains shown)
# VH: DVQLQESGPGLVKPSQSLSLTCSVTGDSITSGYYWNWIRQFPGNKLEWMGFIRFDGTNNYNPSLKNRISITRDTSKNQFFLKLNSVTTEDTATYYCAREGSYAPAWFAYWGQGTLVTVSA
# VL: QIVLTQSPAIMSASPGEKVTMTCSASSSLSYMYWYQQKPGSSPRLLIYDTSNLASGVPVRFSGSGSGTSYSLTISRMEAEDAATYYCQQWSSYPPTFGGGTKLEIKR
# notes: as for B1
# B5: S009-F3-63.5 (antibody, human IgG1, kappa, V domains shown)
# VH: QVQLQQSGAELVRPGASVTLSCKASGYTFTDYEMHWVKQTPVHGLEWIGGIDPETGDTAYNQQFKGKAILTADRSSSTAYMELRSLTSEDSAVYYCTNYASSREDYWGQGTTLTVSS
# VL: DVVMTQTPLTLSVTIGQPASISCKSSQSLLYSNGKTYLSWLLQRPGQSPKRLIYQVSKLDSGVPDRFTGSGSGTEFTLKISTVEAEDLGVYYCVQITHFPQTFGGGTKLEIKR
# notes: as for B1
# Biological target: T1, human MSLN-R1-his protein (human, UniProt Q13421 296-390)
# T1 construct: Self-made in HEK293E cells; also called human MSLN-R1 protein; hMSLN-R1-his; not shown: His tag
# T1 chain: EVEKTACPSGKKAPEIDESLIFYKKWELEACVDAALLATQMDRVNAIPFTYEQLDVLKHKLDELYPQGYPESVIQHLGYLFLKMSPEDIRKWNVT
# Experiment: ELISA on coated antigen, antibody 0.01 nM
# Experimental: (§1) The plate was sealed with a plastic film and incubated at 4° C. overnight. The next day, the plate was washed twice with PBST, and a blocking buffer [PBS+2% (w/w) BSA] was added for blocking at room temperature for 2 h. The blocking buffer was discarded, and a chimeric antibody or negative control antibody serially diluted from 100 nM was added at 50 μL/well. After incubation at 37° C. for 2 h, the plate was washed 3 times with PBST. […] After incubation at 37° C. for 2 h, the plate was washed 5 times with PBST. A TMB substrate was added at 50 μL/well for incubation at room temperature for 5-10 min, and then a stop solution (1.0 N HCl) was added at 50 μL/well.
row,Binder,OD450
1,B1,0.06 OD450
2,B2,0.06 OD450
3,B3,0.07 OD450
4,B4,0.06 OD450
5,B5,0.05 OD450

# Biological target: T2, human MSLN-FL-his protein (human, UniProt Q13421 296-580)
# T2 construct: Self-made in HEK293E cells; also called human MSLN full-length protein; hMSLN-FL-his; not shown: His tag
# Experiment: ELISA on coated antigen, antibody 0.01 nM
row,Binder,OD450
1,B1,0.42 OD450
2,B2,0.07 OD450
3,B3,0.63 OD450
4,B4,0.69 OD450
5,B5,0.62 OD450

# Biological target: T1, human MSLN-R1-his protein
# Experiment: ELISA on coated antigen, antibody 100 nM
# Experimental: as §1
row,Binder,OD450
1,B1,0.11 OD450
2,B2,0.11 OD450
3,B3,0.07 OD450
4,B4,0.65 OD450
5,B5,0.09 OD450

# Biological target: T1, human MSLN-R1-his protein
# Experiment: ELISA on coated antigen, antibody 1 nM
# Experimental: as §1
row,Binder,OD450
1,B1,0.07 OD450
2,B2,0.06 OD450
3,B3,0.06 OD450
4,B4,0.06 OD450
5,B5,0.06 OD450

# Biological target: T2, human MSLN-FL-his protein
# Experiment: ELISA on coated antigen, no antibody (column none)
# Experimental: as §1
row,Binder,OD450
1,B1,0.08 OD450
2,B2,0.07 OD450
3,B3,0.08 OD450
4,B4,0.08 OD450
5,B5,0.06 OD450

# Biological target: T1, human MSLN-R1-his protein
# Experiment: ELISA on coated antigen, antibody 0.001 nM
# Experimental: as §1
row,Binder,OD450
1,B1,0.06 OD450
2,B2,0.07 OD450
3,B3,0.07 OD450
4,B4,0.06 OD450
5,B5,0.05 OD450

# Biological target: T2, human MSLN-FL-his protein
# Experiment: ELISA on coated antigen, antibody 0.1 nM
# Experimental: as §1
row,Binder,OD450
1,B1,1.59 OD450
2,B2,0.07 OD450
3,B3,1.68 OD450
4,B4,1.63 OD450
5,B5,1.72 OD450

# Biological target: T2, human MSLN-FL-his protein
# Experiment: ELISA on coated antigen, antibody 0.001 nM
# Experimental: as §1
row,Binder,OD450
1,B1,0.11 OD450
2,B2,0.06 OD450
3,B3,0.14 OD450
4,B4,0.35 OD450
5,B5,0.14 OD450

# Biological target: T1, human MSLN-R1-his protein
# Experiment: ELISA on coated antigen, antibody 0.0001 nM
# Experimental: as §1
row,Binder,OD450
1,B1,0.06 OD450
2,B2,0.07 OD450
3,B3,0.07 OD450
4,B4,0.06 OD450
5,B5,0.05 OD450

# Biological target: T1, human MSLN-R1-his protein
# Experiment: ELISA on coated antigen, antibody 10 nM
# Experimental: as §1
row,Binder,OD450
1,B1,0.08 OD450
2,B2,0.07 OD450
3,B3,0.06 OD450
4,B4,0.11 OD450
5,B5,0.07 OD450

# Biological target: T2, human MSLN-FL-his protein
# Experiment: ELISA on coated antigen, antibody 10 nM
# Experimental: as §1
row,Binder,OD450
1,B1,1.97 OD450
2,B2,0.06 OD450
3,B3,2.06 OD450
4,B4,1.8 OD450
5,B5,2.15 OD450

# Biological target: T1, human MSLN-R1-his protein
# Experiment: ELISA on coated antigen, no antibody (column none)
# Experimental: as §1
row,Binder,OD450
1,B1,0.07 OD450
2,B2,0.07 OD450
3,B3,0.07 OD450
4,B4,0.07 OD450
5,B5,0.06 OD450

# Biological target: T2, human MSLN-FL-his protein
# Experiment: ELISA on coated antigen, antibody 1 nM
# Experimental: as §1
row,Binder,OD450
1,B1,1.88 OD450
2,B2,0.07 OD450
3,B3,1.93 OD450
4,B4,1.75 OD450
5,B5,1.99 OD450

# Biological target: T2, human MSLN-FL-his protein
# Experiment: ELISA on coated antigen, antibody 100 nM
# Experimental: as §1
row,Binder,OD450
1,B1,2.17 OD450
2,B2,0.1 OD450
3,B3,2.58 OD450
4,B4,2.23 OD450
5,B5,2.76 OD450

# Biological target: T1, human MSLN-R1-his protein
# Experiment: ELISA on coated antigen, antibody 0.1 nM
# Experimental: as §1
row,Binder,OD450
1,B1,0.06 OD450
2,B2,0.06 OD450
3,B3,0.06 OD450
4,B4,0.05 OD450
5,B5,0.05 OD450

# Biological target: T2, human MSLN-FL-his protein
# Experiment: ELISA on coated antigen, antibody 0.0001 nM
# Experimental: as §1
row,Binder,OD450
1,B1,0.07 OD450
2,B2,0.06 OD450
3,B3,0.07 OD450
4,B4,0.1 OD450
5,B5,0.06 OD450
